Measured values as given in patent publication US20200239541A1 (XYPHOS BIOSCIENCES, published 2020).

T1: human NKG2D-Fc (human, UniProt P26718 78-216)
T1 construct: also called natural NKG2D-Fc; not shown: Fc
T1 sequence (looked up): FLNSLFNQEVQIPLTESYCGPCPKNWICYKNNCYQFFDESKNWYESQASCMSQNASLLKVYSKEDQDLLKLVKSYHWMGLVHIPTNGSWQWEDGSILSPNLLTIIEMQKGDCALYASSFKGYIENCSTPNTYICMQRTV

T2: biotinylated human NKG2D (Example 1) (human, UniProt P26718 78-216)
T2 construct: also called recombinant biotinylated NKG2D
T2 sequence (looked up): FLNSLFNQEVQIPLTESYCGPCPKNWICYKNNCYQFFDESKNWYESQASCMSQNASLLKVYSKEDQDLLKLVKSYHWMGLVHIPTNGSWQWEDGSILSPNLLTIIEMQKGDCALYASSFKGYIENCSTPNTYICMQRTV

T3: NKG2D on the human NK cell line NKL (human, UniProt P26718 1-216)
T3 sequence (looked up): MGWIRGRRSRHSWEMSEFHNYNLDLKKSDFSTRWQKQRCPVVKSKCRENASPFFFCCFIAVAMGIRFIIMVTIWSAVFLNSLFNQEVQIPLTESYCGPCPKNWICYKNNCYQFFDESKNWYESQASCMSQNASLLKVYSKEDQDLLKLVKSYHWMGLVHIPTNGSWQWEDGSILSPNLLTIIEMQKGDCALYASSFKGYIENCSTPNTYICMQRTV

B1: α1-α2 variant 16 (His-tagged, with attached heterologous polypeptide) (ligand)
chain: EPHSLRYNLTVLSWDGSVQSGFLTEVHLDGQPFLRCDRQKCRAKPQGQWAEDVLGNKTWDRETRDLTGWGKDLRMTLAHIKDQKEGLHSLQEIRVCEIHEDNSTRSSQHFYYDGELFLSQNLETLEWTMPQSSRAQTLAMNVRNFLKEDAMETDTHYHAMRADCLQELRRYLKSGVVLRRTVPPMVQVTRSEASGGSGDRVTITCRASQDVSTAVAWYQQKPGKAPKLLIYSASFLYSGVPSRFSGSGSGTDFTLTISSLQPEDFATYYCQQSYTTPPTFGQGTKVEIKGGSSRSSSSGGGGSGGGGEVQLVESGGGLVQPGGSLRLSCAASGFTFTSTGISWVRQAPGKGLEWVGRIYPTNGSTNYADSVKGRFTISADTSKNTAYLQMNSLRAEDTAVYYCARTYGIYDLYVDYTEYVMDYWGQGTLVTVSSGGSSRSSSSGGGGSGGGGDIQMTQSPSSLSASGGSGQITVTCRASGFYPWNITLSWRQDGVSLSHDTQQWGDVLPDGQGTYQTWVATRISQGEEQRFTCYMEHSGQHSTHPVPSGKGSHHHHHH
B2: α1-α2 variant 17 (His-tagged, with attached heterologous polypeptide) (ligand)
chain: EPHSLRYNLTVLSWDGSVQSGFLTEVHLDGQPFLRCDRQKCRAKPQGQWAEDVLGNKTWDRETRDLTLWGKDLRMTLAHIKDQKEGLHSLQEIRVCEIHEDNSTRSSQHFYYDGELFLSQNLETLEWTMPQSSRAQTLAMNVRNFLKEDAMETDTHYHAMRADCLQELRRYLKSGVVLRRTVPPMVQVTRSEASGGSGDRVTITCRASQDVSTAVAWYQQKPGKAPKLLIYSASFLYSGVPSRFSGSGSGTDFTLTISSLQPEDFATYYCQQSYTTPPTFGQGTKVEIKGGSSRSSSSGGGGSGGGGEVQLVESGGGLVQPGGSLRLSCAASGFTFTSTGISWVRQAPGKGLEWVGRIYPTNGSTNYADSVKGRFTISADTSKNTAYLQMNSLRAEDTAVYYCARTYGIYDLYVDYTEYVMDYWGQGTLVTVSSGGSSRSSSSGGGGSGGGGDIQMTQSPSSLSASGGSGQITVTCRASGFYPWNITLSWRQDGVSLSHDTQQWGDVLPDGQGTYQTWVATRISQGEEQRFTCYMEHSGQHSTHPVPSGKGSHHHHHH
B3: α1-α2 variant 18 (His-tagged, with attached heterologous polypeptide) (ligand)
chain: EPHSLRYNLTVLSWDGSVQPGFLTEVHLDGQPFLRCDRQKCRAKPQGQWAEDVLGNKTWDRETRDLTLWGKDLRMTLAHIKDQKEGLHSLQEIRVCEIHEDNSTRSSQHFYYDGELFLSQNLETLEWTMPQSSRAQTLAMNVRNFLKEDAMETDTHYHAMRADCLQELRRYLKSGVVLRRTVPPMVQVTRSEASGGSGDRVTITCRASQDVSTAVAWYQQKPGKAPKLLIYSASFLYSGVPSRFSGSGSGTDFTLTISSLQPEDFATYYCQQSYTTPPTFGQGTKVEIKGGSSRSSSSGGGGSGGGGEVQLVESGGGLVQPGGSLRLSCAASGFTFTSTGISWVRQAPGKGLEWVGRIYPTNGSTNYADSVKGRFTISADTSKNTAYLQMNSLRAEDTAVYYCARTYGIYDLYVDYTEYVMDYWGQGTLVTVSSGGSSRSSSSGGGGSGGGGDIQMTQSPSSLSASGGSGQITVTCRASGFYPWNITLSWRQDGVSLSHDTQQWGDVLPDGQGTYQTWVATRISQGEEQRFTCYMEHSGQHSTHPVPSGKGSHHHHHH

Columns and labels:
human NKG2D-Fc [1] = molecular target: T1, human NKG2D-Fc; assay: competition ELISA vs coated WT sMICA
From the text: (§1) To the NKG2DLs in the above example, we directly attached heterologous molecules such as a polypeptide to each of these 4 modified α1-α2 NKG2DLs using a linker peptide. Four His-tagged proteins (SEQ ID NOs.: 25-28) consisting of modified NKG2DLs with attached heterologous molecules were expressed in insect cells and purified to characterize their NKG2D binding affinities and kinetic binding parameters. Using a competitive binding ELISA, we determined the relative NKG2D binding affinities of the 4 modified α1-α2 variants.

[2] = molecular target: T2, biotinylated human NKG2D (Example 1); assay: BLI (Octet), biotinylated human NKG2D coated, 100 nM analyte
human NKG2D-Fc [3] = molecular target: T1, human NKG2D-Fc; assay: competition ELISA vs coated WT sMICA, 2 nM human NKG2D-Fc
From the text: as §1

[4] = molecular target: T2, biotinylated human NKG2D (Example 1); assay: BLI (Octet), Kd = kOFF/kON
[5] = molecular target: T2, biotinylated human NKG2D (Example 1); assay: BLI (Octet)
[6] = molecular target: T3, NKG2D on the human NK cell line NKL; assay: cell-based or functional assay

Binder	fold better binding than WT NKG2DL (human NKG2D-Fc [1]) [fold]	koff [2] [s⁻¹]	kon [2] [M⁻¹ s⁻¹]	IC50 (human NKG2D-Fc [3]) [nM]	Kd [4] [nM]	fold affinity increase relative to WT α1-α2 [5] [fold]	fold reduction in off-rate relative to WT [5] [fold]	NKL cell-mediated lysis of FGFR3-expressing P815 cells (calcein release) [6] [fold]
B1	27	9e-05	200000	0.7	0.5	~30	18	~15
B2	32	7e-05	200000	0.6	0.4	~30	18	~15
B3	38	9e-05	230000	0.5	0.4	~30	18	~15
